The labels stand for the following.
T1: His6-MBP-G9a^641-1193 (WT) (human, UniProt Q96KQ7 641-1193)
T1 construct: G9a (EHMT2), human, residues 641-1193 (ANK, Pre-SET and SET domains); also called WT G9a; source: E. coli, purified
T1 sequence (looked up): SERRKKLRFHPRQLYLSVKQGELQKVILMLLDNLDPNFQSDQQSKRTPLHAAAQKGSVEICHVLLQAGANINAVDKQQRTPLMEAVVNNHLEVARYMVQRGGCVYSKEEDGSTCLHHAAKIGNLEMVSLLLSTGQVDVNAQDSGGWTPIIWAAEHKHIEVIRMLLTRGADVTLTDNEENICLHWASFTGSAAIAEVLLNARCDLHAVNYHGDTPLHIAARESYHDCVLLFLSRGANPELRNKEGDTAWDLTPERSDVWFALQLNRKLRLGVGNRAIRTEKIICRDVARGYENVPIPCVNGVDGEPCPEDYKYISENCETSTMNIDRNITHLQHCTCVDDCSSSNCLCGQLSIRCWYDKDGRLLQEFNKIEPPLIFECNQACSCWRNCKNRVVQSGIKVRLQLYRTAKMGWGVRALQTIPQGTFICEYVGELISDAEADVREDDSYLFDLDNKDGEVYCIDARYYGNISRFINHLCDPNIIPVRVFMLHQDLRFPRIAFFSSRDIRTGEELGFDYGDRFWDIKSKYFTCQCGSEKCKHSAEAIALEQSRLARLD

B1: full-length SUMO-CtBP2 (natural protein)
chain: not shown
notes: Named SUMO-CtBP2 in the pull-downs; also called SUMO-CtBP2-FL; CtBP2-FL; source: E. coli Rosetta 2 (DE3), purified (Ni-NTA); not shown: SUMO, N-terminal, kept
B2: SUMO-G9a (881–913)-FLAG (domain or fragment, human, UniProt Q96KQ7 881-913, looked up)
chain: NKEGDTAWDLTPERSDVWFALQLNRKLRLGVGN
notes: also called Pre-SET fragment; G9a Pre-SET domain; not shown: SUMO, N-terminal, kept; FLAG, C-terminal, kept
B3: SUMO-G9a^881–1210-FLAG (domain or fragment, human, UniProt Q96KQ7 881-1210, looked up)
chain: NKEGDTAWDLTPERSDVWFALQLNRKLRLGVGNRAIRTEKIICRDVARGYENVPIPCVNGVDGEPCPEDYKYISENCETSTMNIDRNITHLQHCTCVDDCSSSNCLCGQLSIRCWYDKDGRLLQEFNKIEPPLIFECNQACSCWRNCKNRVVQSGIKVRLQLYRTAKMGWGVRALQTIPQGTFICEYVGELISDAEADVREDDSYLFDLDNKDGEVYCIDARYYGNISRFINHLCDPNIIPVRVFMLHQDLRFPRIAFFSSRDIRTGEELGFDYGDRFWDIKSKYFTCQCGSEKCKHSAEAIALEQSRLARLDPHPELLPELGSLPPVNT
notes: G9a (EHMT2), human, residues 881-1210; also called CD; G9a C-terminal catalytic domain; not shown: SUMO, N-terminal, kept; FLAG, C-terminal, kept
B4: SUMO-G9a^881–913-FLAG T891R (domain or fragment, human, UniProt Q96KQ7 881-913, looked up)
chain: B2 chain with T11R
notes: source: E. coli Rosetta 2 (DE3), purified; not shown: SUMO, N-terminal, kept; FLAG, C-terminal, kept
B5: SUMO-G9a^881–913-FLAG P892E (domain or fragment, human, UniProt Q96KQ7 881-913, looked up)
chain: B2 chain with P12E
notes: as for B4

Common to all, as to conditions: both partners purified
Assay [1] has as its target T1, His6-MBP-G9a^641-1193 (WT). The experiment in a line: pull-down; MBP pull-down of His6-MBP-G9a(641-1193) WT or Δ885–893 with full-length CtBP2; same procedure as the FLAG pull-down with the respective affinity resin.
The assay “full-length SUMO-CtBP2” has as its target B1. The experiment in a line: pull-down; FLAG-tagged G9a (or GLP) fragments immobilised on anti-FLAG resin, incubated with CtBP protein 2 h at 4 °C; 50 mM Tris-HCl pH 8.0, 150 mM NaCl, 2 mM DTT, 0.1% NP-40; eluted with FLAG peptide, SDS-PAGE.
The target in the next assay is T2, CtBP2 (residues 31–364) (human, UniProt P56545 31-364).
T2 construct: Tag-free by the methods; source: E. coli Rosetta 2 (DE3), purified (Ni-NTA, SUMO protease, SEC; ion exchange and gel filtration for crystals); not shown: His6, N-terminal, cleaved; SUMO, N-terminal, cleaved
The assay is described as above.

The target in another assay is full-length SUMO-CtBP1 (human, UniProt Q13363 1-440). Described as above.

From paper PMC12809078, “CtBP1/2 oligomerization promotes G9a-Mediated transcriptional repression” (The Journal of Biological Chemistry, 2025) come the findings set out here.

Positions count from the first letter of the chain named.

In the case of B1, in assay [1], the binding result is “binds”. For the molecule B2, the binding result in the assay with full-length SUMO-CtBP2, in the assay with CtBP2 (residues 31–364) and with full-length SUMO-CtBP1 was “binds” each time. For the molecule B3, the binding result with full-length SUMO-CtBP2 is given as “binds”. Consider B4, for which, in the assay with full-length SUMO-CtBP2, the binding result is “binds”. Still for that read-out and setting: the entry for B5 is “binds”.
